The values that follow are results of earlier work, collected in patent US20060275806.

The term pKd denotes the negative decadic logarithm of the Kd, by convention in mol/L.

In series [1] the test system is MDBP2 (methylated DNA binding protein 2). Conditions: method not given.
The subject of series [2] is MLL MT domain. Particulars: method not given.

pKd: −log10 of the molar value. Like-named read-outs stand apart in the source and are kept apart here.

Regarding DNA with single fully methylated CpG, in series [1] (5mC at CpG, both strands, error 0.08 nM), the pKd is 8.57. As to non-specific DNA, the pKd in series [1] (error 46.8 nM) was 6.72. Regarding unmethylated CpG DNA, the pKd in series [2] was 7.48.
